Assays:
Type in all cases: cell-based, human
hESCs [1] = assay: AFP antibody-labeled cell number by flow cytometry; settings: FIGS. 9A-B
Excerpt: As a further evidence of the specificity of the SOX17^hi/AFP^lo/TM^lo/SPARC^lo marker profile as predictive of definitive endoderm, SOX17 and AFP gene expression was quantitatively compared to the relative number of antibody labeled cells.

hESCs [2] = assay: Q-PCR of germ layer marker genes (MIXL1, GATA4, HNF3b, SOX7, SPARC, ZIC1, Brachyury) in differentiating hESCs
Excerpt: We routinely used Q-PCR to measure the gene expression of multiple markers of target and non-target cell types in order to provide a broad profile description of gene expression in cell samples. The markers relevant for the early phases of hESC differentiation (specifically ectoderm, mesoderm, definitive endoderm and extra-embryonic endoderm) and for which validated primer sets are available are provided below in Table 1. […] This is an important fact since the hESCs were often grown on mouse feeder layers. Most typically, triplicate samples were taken for each condition and independently analyzed in duplicate to assess the biological variability associated with each quantitative determination.
To generate PCR template, total RNA was isolated using RNeasy (Qiagen) and quantitated using RiboGreen (Molecular Probes). Reverse transcription from 350-500 ng of total RNA was carried out using the iScript reverse transcriptase kit (BioRad), which contains a mix of oligo-dT and random primers. Each 20 μL reaction was subsequently diluted up to 100 μL total volume and 3 μL was used in each 10 μL Q-PCR reaction containing 400 nM forward and reverse primers and 5 μL 2×SYBR Green master mix (Qiagen). Two step cycling parameters were used employing a 5 second denature at 85-94° C. (specifically selected according to the melting temp of the amplicon for each primer set) followed by a 45 second anneal/extend at 60° C. Fluorescence data was collected during the last 15 seconds of each extension phase. A three point, 10-fold dilution series was used to generate the standard curve for each run and cycle thresholds (Ct's) were converted to quantitative values based on this standard curve. The quantitated values for each sample were normalized to housekeeping gene performance and then average and standard deviations were calculated for triplicate samples. At the conclusion of PCR cycling, a melt curve analysis was performed to ascertain the specificity of the reaction. A single specific product was indicated by a single peak at the Tm appropriate for that PCR amplicon.
Definitive endoderm cells were predicted to express high levels of SOX17 mRNA and low levels of AFP and SOX7 (visceral endoderm), SPARC (parietal endoderm) and Brachyury (mesoderm). In addition, ZIC1 was used here to further rule out induction of early ectoderm. Finally, GATA4 and HNF3b were expressed in both definitive and extra-embryonic endoderm, and thus, correlate with SOX17 expression in definitive endoderm (Table 1).

CXCR4 gene expression = assay: Q-PCR of CXCR4 gene expression in differentiating hESCs
Description: In these experiments, hESCs were differentiated by growing in RPMI medium (Invitrogen, Carlsbad, Calif.; cat #61870-036) supplemented with 0.5%, 2.0% or 10% FBS and either with or without 100 ng/ml activin A for 6 days. In addition, a gradient of FBS ranging from 0.5% to 2.0% over the first three days of differentiation was also used in conjunction with 100 ng/ml of activin A. After the 6 days, replicate samples were collected from each culture condition and analyzed for relative gene expression by real-time quantitative PCR. The remaining cells were fixed for immunofluorescent detection of SOX17 protein.
hESCs were differentiated in RPMI media supplemented with 0.5%-2% FBS (increased from 0.5% to 1.0% to 2.0% over the first 3 days of differentiation) and either 0, 10, or 100 ng/ml of activin A. After 7 days of differentiation the cells were dissociated in PBS without Ca^2+/Mg^2+ containing 2% FBS and 2 mM (EDTA) for 5 minutes at room temperature. The cells were filtered through 35 μm nylon filters, counted and pelleted. […] Cells were resuspended at 5×10^6 cells/ml in buffer and analyzed and sorted using a FACS Vantage (Beckton Dickenson) by the staff at the flow cytometry core facility (The Scripps Research Institute). Cells were collected directly into RLT lysis buffer (Qiagen) for subsequent isolation of total RNA for gene expression analysis by real-time quantitative PCR.

definitive endoderm = assay: Dorsal / ventral / PDX1-negative foregut endoderm differentiation from definitive endoderm (marker gene expression); settings: first four days of differentiation (FIGS. 51A, 51B)
Description: Definitive endoderm was produced from undifferentiated hESCs using a three or five day protocol in which activin A was provided to the culture medium at a concentration of 100 ng/ml each day. For both dorsal and ventral differentiation, the medium composition for the first five days was as follows: Day 1—RPMI+0% fetal bovine serum (FBS), Day 2—RPMI+0.2% PBS, Day 3—RPMI+2.0% FBS, Day 4—RPMI+2.0% FBS and Day 5—RPMI+2.0% FBS. For the ventral differentiation, definitive endoderm was produced for 3 days in activin A at 100 ng/ml and then exposed to BMP4 at 3 ng/ml and FGF10 at 50 ng/ml. […] For the dorsal differentiation procedure, definitive endoderm was produced for 5 days in activin A at 100 ng/ml and then exposed to retinoic acid (RA) at 2 μM and activin A at 25 ng/ml in CMRL medium containing B27 supplement (1:200).
Four separate conditions were used to treat hESCs that result in varying proportions of differentiation to definitive endoderm. All four conditions utilized RPMI supplemented with 0% FBS on the first day, 0.2% FBS on second day, and 2% FBS on days 3 and 4. The four conditions were as follows: (a) BMP4 at 100 ng/mL with SU5402 at 5 μM; (b) no exogenous growth factors; (c) activin A at 15 ng/mL; and (d) activin A at 100 ng/ml. […] All cultures were then incubated for 2 days with BMP4 at 3 ng/mL, FGF10 at 50 ng/ml and KAAD-cyclopamine at 0.5 μM in a base medium of 2% FBS in RPMI followed by 6 days with BMP4 at 3 ng/mL, FGF10 at 50 ng/ml and KAAD-cyclopamine at 0.5 μM in a base medium composed of CMRL with 1:200 dilution of B27 extract.
Definitive endoderm was produced by exposing undifferentiated hESCs to activin at 100 ng/mL in RPMI base medium supplemented with 0%, 0.2%, and 2% FBS on days 1 through 3, respectively. After 3 days of activin A treatment, the cultures were switched to a base medium composed of RPMI containing 2% FBS and maintained under one of the following conditions: (a) BMP4 at 3 ng/ml with FGF10 at 50 ng/ml and KAAD-cyclopamine at 0.5 μM; (b) FGF10 at 50 ng/ml and KAAD-cyclopamine at 0.5 μM; or (c-e) no exogenous factors. After two days, the base medium was changed to CMRL plus B27 supplement (1:200) and cells were maintained according to conditions (a-c) above. Alternatively, cells were maintained with no exogenous factors in RPMI with B27 supplement (1:200) (condition (d)) or RPMI with 2% FBS (condition (e)). The same factor treatment conditions were maintained for 8 more days of differentiation.
Human embryonic stem cells were differentiated for 7 days via a 2-step protocol to achieve PDX1 cells. The first step comprised 5 days differentiation in activin A (100 ng/ml) to robustly produce DE (D'Amour, K., et al., Nature Biotechnology 23, 1534-1541, (2005)). […]

B1: activin A (protein, UniProt P08476 311-426, looked up)
Inhibin beta A chain: GLECDGKVNICCKKQFFVSFKDIGWNDWIIAPSGYHANYCEGECPSHIAGTSGSSLSFHSTVINHYRMRGHSPFANLKSCCVPTKLRPMSMLYYDDGQNIIKKDIQNMIVEECGCS
modifications: Inhibin beta A chain
- decrease in AFP antibody-labeled cell number as measured by flow cytometry (hESCs [1]): approximately 7 fold
- mesoderm differentiation (brachyury expression) (hESCs [2]; 100 ng/ml (FIG. 14B)): notable suppression
- effect on neural differentiation (ZIC1 expression) (hESCs [2]; activin A dose series (FIG. 14A)): not a dose-dependent effect
- expression of definitive endoderm markers MIXL1, GATA4 and HNF3b (hESCs [2]; activin A dose series (FIGS. 12A-C)): dose-dependent increases
- expression of primitive endoderm (SOX7) and parietal endoderm (SPARC) markers (hESCs [2]; activin A dose series (FIGS. 13B-C)): remain either unchanged or exhibit suppression at some time points
- relative levels of CXCR4 gene expression (CXCR4 gene expression; 0, 10, or 100 ng/ml, 7 days (FIG. 32)): dramatically increased with increasing dose
- CXCR4 expression (CXCR4 gene expression; 100 ng/ml (A100) vs no exogenous activin A (NF), 6 days (FIG. 26)): high
- definitive endoderm production (CER and SOX17 gene expression) (definitive endoderm): robust definitive endoderm differentiation

Source: patent US11427805B2, “Methods of producing human foregut endoderm cells expressing PDX1 from human definitive endoderm” (ViaCyte, Inc., priority 2005, dated 2022)
